Measurements published in the RNAGym collection of RNA variant scans (doi:10.7554/elife.90254).

B1: LINE1-full (parent)
chain: UACGUAGGUGGUUUUCCCCUGAUAGUGCUAAGGGGGCCUGGAAGUUUGGACUGGGCAGAGCUCAACACAGCGUGGCAAAGUGGCUGUGGCUAGACUGCCUCUCUGGAUUCCUCGUCACUCAGCAGGGCAUCUCUGAGAGAAAUGCC

Variants of: B1
Experiment: self-cleavage, relative activity (ratio to wild type); higher = more cleavage; in vitro, sequencing; the parent is a self-cleaving ribozyme
C84G U100C gave a self-cleavage of 0.07. With U81G A107G the self-cleavage was 1.01. U81C A92G gave a self-cleavage of 0. In the case of U81C A92U, the self-cleavage is reported as 0.95. In the case of G82A U108C, the self-cleavage is reported as 2.48. With G83A A107G the self-cleavage was 0.91. Variant G82U U143C has a self-cleavage of 1.72. In the case of U87A A138U, the self-cleavage is reported as 0.03. U81C U130G showed a self-cleavage of 1.84. U81G A117U gave a self-cleavage of 1.32. For U85A A136U, the self-cleavage was 0.19. Work on U85A C99G yielded a self-cleavage of 0.05. For G86A A121U, the self-cleavage was 0.26. In the case of C84A C145U, the self-cleavage is reported as 0.08. For U85G A136G, the self-cleavage was 0. In the case of U85G U104C, the self-cleavage is reported as 0. With U81C U132C the self-cleavage was 1.61. For U85A G88A, the self-cleavage was 0.23. Work on U85C U115A yielded a self-cleavage of 0.19. U87C C146U gave a self-cleavage of 0.34. Variant U85G U102C has a self-cleavage of 0.55. Variant U81G has a self-cleavage of 1.32. U81C showed a self-cleavage of 1.37. U81C C128U gave a self-cleavage of 1.19. In the case of G82A U132C, the self-cleavage is reported as 2.22. Work on U87A G106C yielded a self-cleavage of 0.08. For U87A G106A, the self-cleavage was 0.06. In the case of U85G U119A, the self-cleavage is reported as 0.19. U85A G105A gave a self-cleavage of 0.04. In the case of U81G U119C, the self-cleavage is reported as 1.54. With U85C A129G the self-cleavage was 0.16. In the case of U85C A129U, the self-cleavage is reported as 0.19. U85C A141G showed a self-cleavage of 0.16. G86A A92G showed a self-cleavage of 0.02. U87A A140G showed a self-cleavage of 0.07. Work on G86U A129G yielded a self-cleavage of 0.09. With U85C C99U the self-cleavage was 0.07. For U87C A141G, the self-cleavage was 0.24. In the case of C84U A138G, the self-cleavage is reported as 0.13. Variant U87A A136U has a self-cleavage of 0.1. With G82A C84U the self-cleavage was 0.51. In the case of G86U A138G, the self-cleavage is reported as 0.09. For G82A U87C, the self-cleavage was 0.17. For U81C U85A, the self-cleavage was 0.16. Variant U85C G105A has a self-cleavage of 0.12. In the case of U85A A107U, the self-cleavage is reported as 0.08. G82A A124G gave a self-cleavage of 1.3. In the case of G82U U102C, the self-cleavage is reported as 1.45. U87A C98U showed a self-cleavage of 0.05. With C84U U112A the self-cleavage was 0.11. For U81C G86U, the self-cleavage was 0.13. In the case of U87C A121G, the self-cleavage is reported as 0.15. With U81A U143C the self-cleavage was 1.95. In the case of U81C G105A, the self-cleavage is reported as 1.06. For U87G A142G, the self-cleavage was 0.25. In the case of U87A C146U, the self-cleavage is reported as 0.09. With U87G C118U the self-cleavage was 0.17. In the case of U81C C116A, the self-cleavage is reported as 0.59. In the case of U81C C116U, the self-cleavage is reported as 1.14. In the case of U81C G127U, the self-cleavage is reported as 1.22. For G86A U119C, the self-cleavage was 0.07. U81C G83A gave a self-cleavage of 1.46. U81C U104A showed a self-cleavage of 1.07. In the case of C84U U100C, the self-cleavage is reported as 0.21. In the case of U85G C113A, the self-cleavage is reported as 0.14. G86A A129G showed a self-cleavage of 0.05. With U87A G122A the self-cleavage was 0.09. Work on U85C U130A yielded a self-cleavage of 0.35. Variant U85C U130C has a self-cleavage of 0.23. In the case of G83A A121G, the self-cleavage is reported as 0.98. Work on G83A U85G yielded a self-cleavage of 0.1. In the case of G83A U85C, the self-cleavage is reported as 0.09. In the case of C84U U134C, the self-cleavage is reported as 0.19. U85G U112A gave a self-cleavage of 0.26. In the case of U85G G144A, the self-cleavage is reported as 0.21. Variant G86U A107G has a self-cleavage of 0.02. With U87C A92G the self-cleavage was 0.1. In the case of U85C C98U, the self-cleavage is reported as 0.01. U81C A140G showed a self-cleavage of 1.07. Work on U85A U87A yielded a self-cleavage of 0.07. In the case of U85A U87G, the self-cleavage is reported as 0.07. With U87C C99U the self-cleavage was 0.13. For G82U U134G, the self-cleavage was 1.3. In the case of G82U A92U, the self-cleavage is reported as 0.43. In the case of U85A U112C, the self-cleavage is reported as 0.04. With G82A A107G the self-cleavage was 1.73. Variant U87C G114U has a self-cleavage of 0.19. Variant U87C G114A has a self-cleavage of 0.23. G83U U85A gave a self-cleavage of 0.07. For U87A U112A, the self-cleavage was 0.07. C84U U132C gave a self-cleavage of 0.14. Variant G83U U112C has a self-cleavage of 0.85. U85A A124C gave a self-cleavage of 0.08. For U85A A124G, the self-cleavage was 0.04. In the case of U81G A129G, the self-cleavage is reported as 1.48. Variant G83U A142G has a self-cleavage of 0.44. U87A U91A gave a self-cleavage of 0.12. Work on C84U U87C yielded a self-cleavage of 0.04. Work on G86A U100C yielded a self-cleavage of 0.1. Work on C84A U108A yielded a self-cleavage of 0.12. U85A A94U showed a self-cleavage of 0.07. U85A U119C showed a self-cleavage of 0.09. Variant U81G A92G has a self-cleavage of 0.24. With U87C U91A the self-cleavage was 0.2. For U87C U91C, the self-cleavage was 0.31. Variant G86A A140U has a self-cleavage of 0.09. U85C G127C gave a self-cleavage of 0.24. Work on U85C G127U yielded a self-cleavage of 0.14. G86A U115A showed a self-cleavage of 0.01. For C84U U143C, the self-cleavage was 0.1. G83A A94U gave a self-cleavage of 0.24. In the case of U85G C118U, the self-cleavage is reported as 0.14. With U87G A140U the self-cleavage was 0.13. With U87A U115C the self-cleavage was 0.09. Work on U87A U115A yielded a self-cleavage of 0.1. For G82A G114U, the self-cleavage was 2.07. Work on G82A A140G yielded a self-cleavage of 0.93. Variant C84G A129G has a self-cleavage of 0.2. In the case of U81G U87A, the self-cleavage is reported as 0.15. G83U A117U showed a self-cleavage of 1.21. U87A U102C showed a self-cleavage of 0.08. With U87C A124G the self-cleavage was 0.11. U87C A124U gave a self-cleavage of 0.33. Work on U81C A142G yielded a self-cleavage of 1.38. U81C A142C showed a self-cleavage of 1.18. G82A G105A gave a self-cleavage of 1.95. In the case of U87C A142U, the self-cleavage is reported as 0.09. In the case of U87C A142C, the self-cleavage is reported as 0.24. In the case of U81C U100A, the self-cleavage is reported as 1.05. Variant U81G U100C has a self-cleavage of 1.43. With G83A U130A the self-cleavage was 0.99. In the case of U85A G127A, the self-cleavage is reported as 0.06. U81C A107G gave a self-cleavage of 1.21. Work on U85C A117U yielded a self-cleavage of 0.19. For U85C A117G, the self-cleavage was 0.15. Work on U85A A142C yielded a self-cleavage of 0.14. U85C C90A showed a self-cleavage of 0.07. U87C C118U showed a self-cleavage of 0.22. Work on G83U A124G yielded a self-cleavage of 0.36. U81C G122U showed a self-cleavage of 1.14. With G83A A136G the self-cleavage was 1.05. For U85C U109G, the self-cleavage was 0. For U85C A94U, the self-cleavage was 0.14. Variant U85C A94G has a self-cleavage of 0.07. Work on U81C U102A yielded a self-cleavage of 1.05. U81C U102C showed a self-cleavage of 0.72. U81C A136G gave a self-cleavage of 1.12. Variant U85A U100C has a self-cleavage of 0.21. U87C U102C gave a self-cleavage of 0.36. Work on G82A A94U yielded a self-cleavage of 0.33. U81C U143A gave a self-cleavage of 1.22. G86A A142G showed a self-cleavage of 0.06. In the case of U87C A138U, the self-cleavage is reported as 0.24. For U85C U91A, the self-cleavage was 0.14. Work on U81C U112A yielded a self-cleavage of 1.42. G83A A138G showed a self-cleavage of 0.73. G82U U115C showed a self-cleavage of 0.84. Work on U87C U115C yielded a self-cleavage of 0.31. Work on U87C U115A yielded a self-cleavage of 0.17. With G83A U112C the self-cleavage was 0.54. In the case of U81C A129U, the self-cleavage is reported as 1.48. In the case of G82A G126U, the self-cleavage is reported as 2.04. Variant U81A U134G has a self-cleavage of 0.65. Work on U87C C131U yielded a self-cleavage of 0.15. With U85C U100A the self-cleavage was 0. C84U A124G gave a self-cleavage of 0.11. In the case of G83A G97C, the self-cleavage is reported as 0.18.
